{"source": "patent US20240307496A1", "about": "“METHOD AND PHARMACEUTICAL COMBINATION FOR PREVENTING CANCER RECURRENCE” (priority 2021, published 2024)", "molecules": {"B1": {"name": "deglycosylated mIFN-α4: recombinant mouse interferon α4 (GenBank NP_034634) expressed in Pichia pastoris, glycosyl groups removed with glycosidase (protein, UniProt P07351 25-186, looked up)", "Interferon alpha-4": "CDLPHTYNLGNKRALTVLEEMRRLPPLSCLKDRKDFGFPLEKVDNQQIQKAQAILVLRDLTQQILNLFTSKDLSATWNATLLDSFCNDLHQQLNDLKACVMQEPPLTQEDSLLAVRTYFHRITVYLRKKKHSLCAWEVIRAEVWRALSSSTNLLARLSEEKE", "modifications": "deglycosylated", "notes": "recombinant mouse interferon α4 (GenBank NP_034634) expressed in Pichia pastoris, glycosyl groups removed with glycosidase"}, "B2": {"name": "PEG-mIFN-α4: deglycosylated recombinant mouse interferon α4 modified with 40kD Y-type polyethylene glycol succinimide ester (YPEG-NHS); SEQ ID NO: 6 (protein)", "chain": "B1 Interferon alpha-4", "modifications": "40kD Y-type PEG; deglycosylated; peginterferon murine alpha 4"}}, "key": {"[1]": {"tested_on": "transplanted colorectal cancer CT26", "experiment": "Prevention of recurrence of transplanted colorectal cancer CT26 in mice", "type": "in vivo, BALB/c mice", "conditions": "for anticancer activity / prevention of tumor recurrence (conclusion): CT26 recurrence simulated with low-density tumor inoculation; for survival rate during the observation period / Tumor incidence: gemcitabine 60 mg/kg i.p.; for Tumor incidence: tumor volume ≥ 62.5 mm^3 positive, then stopped 56 days", "experimental": "On the day after tumor inoculation, they were randomly divided into the following experiment groups: PEG-mIFN-α4 only group (N=20, 10 females and 10 males), normal saline control group (N=20, 10 females and 10 males), gemcitabine only group (N=20, 10 females and 10 males), and PEG-mIFN-α4 combined with gemcitabine group (N=20, 10 females and 10 males).\nPEG-mIFN-α4 was administered by subcutaneous injection on the back of the neck, with a dose of 1 microgram per mouse. Administration began on the day after grouping. In the PEG-miFN-α4 only group, PEG-mFN-α4 was administered once a week for 12 times, and then stopped for 56 days. In the PEG-mIFN-α4 combined with gemcitabine group, both PEG-mIFN-α4 and gemcitabine were administered once a week for 12 consecutive times, and then stopped for 56 days. In the gemcitabine only group, gemcitabine was administered once a week for 12 times, and then stopped for 56 days. The normal saline control group was given an equal volume of normal saline. Gemcitabine was administered by intraperitoneal injection at a dose of 60 mg/kg.\n(§1) The tumor incidence of each group was calculated when the tumor volume was greater than or equal to 62.5 mm^3, which was determined as positive for tumor occurrence."}, "[2]": {"tested_on": "transplanted liver cancer H22", "experiment": "Prevention of recurrence of transplanted liver cancer H22 in mice", "type": "in vivo, BALB/c mice", "conditions": "for anticancer activity / prevention of tumor recurrence (conclusion): H22 recurrence simulated with low-density tumor inoculation; for Tumor incidence: tumor volume ≥ 62.5 mm^3 positive, then stopped 103 days, PEG-mIFN-α4 1 μg/mouse s.c.", "description": "After tumor treatment, the tumor load in patient's body is relatively low, so a low tumor grafting volume is used to simulate the state after tumor treatment. […] Three days after tumor inoculation, they were randomly divided into the following experiment groups: PEG-mIFN-α4 group (N=28, 14 females, 14 males). PEG-mIFN-α4 combined with gemcitabine group (N=28, 14 females, 14 males), normal saline control group (N=28, 14 females, 14 males), and gemcitabine only group (N=28, 14 females, 14 males).\nPEG-mIFN-α4 was administered by subcutaneous injection on the back of the neck, with a dose of 1 microgram per mouse. Administration began on the day after grouping. In the PEG-mIFN-α4 group, PEG-mIFN-α4 was administered once a week for 9 weeks, and then stopped for 103 days. In the PEG-mIFN-α4 combined with gemcitabine group, PEG-mIFN-α4 and gemcitabine were administered once a week for 9 weeks, and then stopped for 103 days. In the gemcitabine alone group, gemcitabine was administered once a week for 9 weeks, and then stopped for 103 days. The normal saline control group was given an equal volume of normal saline. Gemcitabine was injected intraperitoneally at a dose of 60 mg/kg.\nas §1"}, "[3]": {"tested_on": "mouse fibroblast/encephalomyocarditis vinis (L929/EMCV)", "experiment": "L929/EMCV cytopathic inhibition method, specific activity", "type": "cell-based", "conditions": "commercial mIFN-α4 (R&D) as the standard", "experimental": "The bacterial endotoxin content of the deglycosylated mIFN-α4 stock solution was determined by the Limulus reagent method as lower than 60 EU/mg, specific activity was determined as 5.4×10^8 U/mg by using the commercial mIFN-α4 (R&D, catalog number 12115-1) as the standard, and by using the mouse fibroblast/encephalomyocarditis vinis (L929/EMCV) cytopathic inhibition method.\nThe bacterial endotoxin content of the PEG-mIFN-α4 stock solution was determined by the Limulus reagent method as lower than 15 EU/mg. Specific activity was determined as 6.1×10^6 U/mg by using the commercial mIFN-α4 (R&D, catalog number 12115-1) as the standard, and by using the mouse fibroblast/encephalomyocarditis vinis (L929/EMCV) cytopathic inhibition method."}, "[4]": {"design": "species or system BALB/c mice", "conditions": "mouse, in vivo, sc", "description": "Note: In the pharmacokinetic analysis, for samples with blood concentration lower than the quantification lower limit, the sample before the peak blood concentration was counted as 0, and the sample after the peak was expressed as BLQ."}, "[5]": {"conditions": "by day 134 after tumor inoculation, once a week for 12 times, PEG-mIFN-α4 1 μg/mouse s.c."}, "[6]": {"conditions": "by day 134 after tumor inoculation, once a week for 12 times, PEG-mIFN-α4 1 μg/mouse s.c., listed as gemcitabine"}, "[7]": {"conditions": "by day 166 after tumor inoculation, once a week for 9 weeks, gemcitabine 60 mg/kg i.p."}}, "data": [{"molecule": "Nc1ccn([C@@H]2O[C@H](CO)[C@@H](O)C2(F)F)c(=O)n1", "note": "[Gemcitabine, reference compound]", "values": [{"measurement": "anticancer activity / prevention of tumor recurrence (conclusion)", "setting": "[1]", "result": "could effectively prevent tumor recurrence"}, {"measurement": "survival rate during the observation period", "setting": "[1]; [5]", "result": "period: 55.0%"}, {"measurement": "survival rate during the observation period", "setting": "[1]; [6]", "result": 55.0, "unit": "%"}, {"measurement": "Tumor incidence", "setting": "[1]; [5]", "result": 50.0, "unit": "%"}, {"measurement": "Tumor incidence", "setting": "[1]; [6]", "result": 50, "unit": "%"}, {"measurement": "anticancer activity / prevention of tumor recurrence (conclusion)", "setting": "[2]", "result": "could effectively prevent tumor recurrence"}, {"measurement": "Median survival time (time after tumor inoculation, days)", "setting": "[2]; [7]", "result": 93.0, "unit": "days"}, {"measurement": "Tumor incidence", "setting": "[2]; [7]", "result": 57.1, "unit": "%"}, {"measurement": "Tumor incidence", "setting": "[2]; by day 166 after tumor inoculation, once a week for 9 weeks, gemcitabine 60 mg/kg i.p., listed as gemcitabine", "result": 57.1, "unit": "%"}]}, {"molecule": "B1", "values": [{"measurement": "specific activity", "setting": "[3]", "result": "5.4×10^8 U/mg"}]}, {"molecule": "B2", "values": [{"measurement": "tumor incidence compared with normal saline control group", "setting": "[1]; CT26, day 134", "result": "lower"}, {"measurement": "anticancer activity / prevention of tumor recurrence (conclusion)", "setting": "[1]", "result": "could effectively prevent tumor recurrence"}, {"measurement": "Median survival time (time after tumor inoculation, days)", "setting": "[1]; [5]", "result": 68.5, "unit": "days"}, {"measurement": "Tumor incidence", "setting": "[1]; [5]", "result": 95, "unit": "%"}, {"measurement": "tumor incidence compared with normal saline control group", "setting": "[2]; H22, day 166", "result": "lower"}, {"measurement": "anticancer activity / prevention of tumor recurrence (conclusion)", "setting": "[2]", "result": "could effectively prevent tumor recurrence"}, {"measurement": "Tumor incidence", "setting": "[2]; [7]", "result": 32.1, "unit": "%"}, {"measurement": "Cl_F—obs", "setting": "[4]", "result": 0.07, "unit": "mL/h"}, {"measurement": "T1/2", "setting": "[4]", "result": 28.3, "unit": "h"}, {"measurement": "Tmax", "setting": "[4]", "result": 24.0, "unit": "h"}, {"measurement": "Vz_F—obs", "setting": "[4]", "result": 2.91, "unit": "mL"}, {"measurement": "elimination half-life (T1)", "setting": "[4]", "result": 28.3, "unit": "h"}, {"measurement": "plasma concentration peak time (Tmax)", "setting": "[4]", "result": 24, "unit": "h"}, {"measurement": "specific activity", "setting": "[3]", "result": "6.1×10^6 U/mg"}]}]}
